In patent US20110059889A1 (SYNTONIX PHARMACEUTICALS, published 2011):
Numbered stars: 1 amine (or outer) side, 2 acyl side, 3 side chain; on linkers, the order of the positions; unused ones are H or OH. Bridge positions count the residues as written; N and C are the ends. Square brackets hold non-standard residues; d marks the D form. Ends that are not written are not given here. Tyr(2-NO2) = 2-nitro-Tyr, O=C([C@H](Cc1ccc(O[*:3])cc1[N+](=O)[O-])N[*:1])[*:2]; Phe(4-NO2) = N[C@@H](Cc1ccc([N+](=O)[O-])cc1)C(=O)O; Phe(F5) = N[C@@H](Cc1c(F)c(F)c(F)c(F)c1F)C(=O)O; Phe(4-NH2) = Nc1ccc(C[C@H](N)C(=O)O)cc1; Phe(4-F) = N[C@@H](Cc1ccc(F)cc1)C(=O)O; Pen = CC(C)(S)[C@H](N)C(=O)O

Legend:
[1] = target: T1, soluble human FcRn (shFcRn) (human, UniProt P55899 24-297; P61769 21-119); test: SPR pH 6; Peptide No. 87: Pen, 2-nitro-Tyr for Tyr (QRF-Pen-TGHFGGL-(2-nitro-Tyr)-PCNGP)
T1 construct: Biotinylated for the ELISA, amine-coupled to a CM5 chip for SPR; also called biotinylated shFcRn
T1 sequence (P55899 24-297 limits assumed, chain 1 of 2): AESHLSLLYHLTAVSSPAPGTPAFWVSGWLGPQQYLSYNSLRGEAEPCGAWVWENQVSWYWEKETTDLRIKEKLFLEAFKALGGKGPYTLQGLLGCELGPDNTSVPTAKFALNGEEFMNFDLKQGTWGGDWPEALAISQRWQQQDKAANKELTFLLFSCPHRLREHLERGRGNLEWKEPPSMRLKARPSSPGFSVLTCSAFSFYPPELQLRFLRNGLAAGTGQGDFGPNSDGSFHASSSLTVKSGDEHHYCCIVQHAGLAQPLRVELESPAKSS
T1 sequence (P61769 21-119 limits assumed, chain 2 of 2): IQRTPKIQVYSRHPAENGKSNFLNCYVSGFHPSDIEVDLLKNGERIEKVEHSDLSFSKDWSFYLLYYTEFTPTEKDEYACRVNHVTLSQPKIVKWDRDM
Experimental: (§1) The following steps were performed to cross-link soluble human or cynomolgus FcRn to the dextran surface of a CM5 sensor chip (Biacore AB, Uppsala, Sweden) by an amine coupling reaction involving 1-ethyl-(3-dimethylaminopropyl)-carbodiimide hydrochloride (EDC) (Biacore AB, Uppsala, Sweden) and N-hydroxysuccinimide (NHS) (Biacore AB, Uppsala, Sweden) as recommended by Biacore (BIAapplications Handbook, version AB, section 4.2, Biacore AB, Uppsala, Sweden). […] Residual sites on the FcRn flow cell were blocked with 1 M ethanolamine hydrochloride pH 8.5 (Biacore AB, Uppsala, Sweden). A control flow cell was blocked with ethanolamine for reference subtraction. For analysis of the monomeric peptides, FcRn was coated to a final density of 4000-5000 response units (RU). For analysis of the peptide dimers, FcRn was coated to a density of 2000-2500 RU. All SPR measurements were performed using a BIACORE 3000 Instrument (Biacore AB Uppsala, Sweden). For measurements done at either pH 6 or pH 7.4, experiments were performed in 50 mM phosphate, 100 mM sodium chloride, 0.01% surfactant P20 (Biacore AB, Uppsala, Sweden).
(§2) Ten, 2-fold dilutions of the peptide were injected over the FcRn-CM5 chip at a rate of 20 μl/min for 2 min. The peptide was dissociated from the chip for 2.5 minutes with buffer. […] Sensorgrams were generated and analyzed using BiaEval software version 3.1 (Biacore AB, Uppsala, Sweden). […]

[2] = target: T1, soluble human FcRn (shFcRn); test: IgG competition ELISA
Experimental: The wells were coated with 100 μl/well of 1 μg/ml biotinylated-shFcRn in Buffer A. The plate was sealed and incubated at 37° C. for 2 hours. Afterwards, the plate was washed with 200 μl/well of Buffer B (Buffer B: 100 mM MES pH 6, 150 mM NaCl, 0.5% BSA IgG-free (Jackson ImmunoResearch, West Grove, Pa.), 0.05% Tween-20). […] To allow for mixing, the plate was rocked for 2 minutes, sealed and incubated at 37° C. for 2 hours. […] The plate was covered, incubated for 30 minutes at room temperature and washed 4 times with 200 μl/well of ice-cold buffer B. SureBlue TMB substrate solution (100 μl/well, KPL, Gaithersburg, Md.) was added and the plate was allowed to incubate at room temperature until color developed, which took 5 to 10 minutes. Once color developed, 100 μl/well of TMB stop solution (KPL, Gaithersburg, Md.) was added and the absorbance was measured at 450 nm. The data was plotted as absorbance vs. peptide concentration to derive the inhibitory concentration 50% (IC₅₀) values.

[3] = target: T1, soluble human FcRn (shFcRn); test: SPR pH 6; 4-amino-Phe in place of Tyr; Pen backbone
Experimental: as §1, §2

[4] = target: T1, soluble human FcRn (shFcRn); test: SPR pH 7.4
Experimental: as §1, §2

[5] = target: T1, soluble human FcRn (shFcRn); test: SPR pH 6; pentafluoroPhe in place of Tyr; Pen backbone
Experimental: as §1, §2

[6] = target: T1, soluble human FcRn (shFcRn); test: SPR pH 6; 4-nitro-Phe in place of Tyr; Pen backbone
Experimental: as §1, §2

B1: Peptide No. 87 (peptide)
peptide: QRF[Pen]TGHFGGL[Tyr(2-NO2)]PCNGP-NH2
modifications: disulfide 4-14; N-terminus assumed
SMILES: CC(C)C[C@@H]1NC(=O)CNC(=O)CNC(=O)[C@H](Cc2ccccc2)NC(=O)[C@H](Cc2c[nH]cn2)NC(=O)CNC(=O)[C@H]([C@@H](C)O)NC(=O)[C@@H](NC(=O)[C@H](Cc2ccccc2)NC(=O)[C@H](CCCNC(=N)N)NC(=O)[C@@H](N)CCC(N)=O)C(C)(C)SSC[C@@H](C(=O)N[C@@H](CC(N)=O)C(=O)NCC(=O)N2CCC[C@H]2C(N)=O)NC(=O)[C@@H]2CCCN2C(=O)[C@H](Cc2ccc(O)cc2[N+](=O)[O-])NC1=O
**Q.** Which Kd [1] does the source give for B1 here?
**A.** The Kd was 290 µM.

B2: Peptide No. 63 (peptide)
peptide: QRF[Pen]TGHFGGL[Phe(4-NH2)]PCNGP-NH2
modifications: disulfide 4-14; N-terminus assumed
SMILES: CC(C)C[C@@H]1NC(=O)CNC(=O)CNC(=O)[C@H](Cc2ccccc2)NC(=O)[C@H](Cc2c[nH]cn2)NC(=O)CNC(=O)[C@H]([C@@H](C)O)NC(=O)[C@@H](NC(=O)[C@H](Cc2ccccc2)NC(=O)[C@H](CCCNC(=N)N)NC(=O)[C@@H](N)CCC(N)=O)C(C)(C)SSC[C@@H](C(=O)N[C@@H](CC(N)=O)C(=O)NCC(=O)N2CCC[C@H]2C(N)=O)NC(=O)[C@@H]2CCCN2C(=O)[C@H](Cc2ccc(N)cc2)NC1=O
**Q.** For B2, which IC50 [2] is on record?
**A.** Its IC50 is 110 µM.

**Q.** What about the Kd [3] of the same binder?
**A.** Its Kd is 34 µM.

B3: Peptide No. 140 (peptide)
peptide: QRF[Pen]TGHFGGL[Phe(4-F)]PCNGP-NH2
modifications: disulfide 4-14; N-terminus assumed
SMILES: CC(C)C[C@@H]1NC(=O)CNC(=O)CNC(=O)[C@H](Cc2ccccc2)NC(=O)[C@H](Cc2c[nH]cn2)NC(=O)CNC(=O)[C@H]([C@@H](C)O)NC(=O)[C@@H](NC(=O)[C@H](Cc2ccccc2)NC(=O)[C@H](CCCNC(=N)N)NC(=O)[C@@H](N)CCC(N)=O)C(C)(C)SSC[C@@H](C(=O)N[C@@H](CC(N)=O)C(=O)NCC(=O)N2CCC[C@H]2C(N)=O)NC(=O)[C@@H]2CCCN2C(=O)[C@H](Cc2ccc(F)cc2)NC1=O
**Q.** With B3 as the binder, how does the IC50 [2] read?
**A.** The IC50 was 26 µM.

**Q.** What about the Kd [4] of the same binder?
**A.** Its Kd is 24 µM.

B4: Peptide No. 65 (peptide)
peptide: QRF[Pen]TGHFGGL[Phe(F5)]PCNGP-NH2
modifications: disulfide 4-14; N-terminus assumed
SMILES: CC(C)C[C@@H]1NC(=O)CNC(=O)CNC(=O)[C@H](Cc2ccccc2)NC(=O)[C@H](Cc2c[nH]cn2)NC(=O)CNC(=O)[C@H]([C@@H](C)O)NC(=O)[C@@H](NC(=O)[C@H](Cc2ccccc2)NC(=O)[C@H](CCCNC(=N)N)NC(=O)[C@@H](N)CCC(N)=O)C(C)(C)SSC[C@@H](C(=O)N[C@@H](CC(N)=O)C(=O)NCC(=O)N2CCC[C@H]2C(N)=O)NC(=O)[C@@H]2CCCN2C(=O)[C@H](Cc2c(F)c(F)c(F)c(F)c2F)NC1=O
**Q.** How did the Kd [5] turn out when B4 was run?
**A.** Its Kd is 72 µM.

B5: Peptide No. 68 (peptide)
peptide: QRF[Pen]TGHFGGL[Phe(4-NO2)]PCNGP-NH2
modifications: disulfide 4-14; N-terminus assumed
SMILES: CC(C)C[C@@H]1NC(=O)CNC(=O)CNC(=O)[C@H](Cc2ccccc2)NC(=O)[C@H](Cc2c[nH]cn2)NC(=O)CNC(=O)[C@H]([C@@H](C)O)NC(=O)[C@@H](NC(=O)[C@H](Cc2ccccc2)NC(=O)[C@H](CCCNC(=N)N)NC(=O)[C@@H](N)CCC(N)=O)C(C)(C)SSC[C@@H](C(=O)N[C@@H](CC(N)=O)C(=O)NCC(=O)N2CCC[C@H]2C(N)=O)NC(=O)[C@@H]2CCCN2C(=O)[C@H](Cc2ccc([N+](=O)[O-])cc2)NC1=O
**Q.** How did the Kd [6] turn out when B5 was run?
**A.** The Kd was 180 µM.
